B1: HIV-1 Vif, wild type [HIV-1] / Flag-CBFβ (core-binding factor β), wild type [not stated] (parent complex)
chain 1: not shown
chain 2: MPRVVPDQRSKFENEEFFRKLSRECEIKYTGFRDRPHEERQARFQNACRDGRSEIAFVATGTNLSLQFFPASWQGEQRQTPSREYVDLEREAGKVYLKAPMILNGVCVIWKGWIDLQRLDGMGCLEFDEERAQQEDALAQQAFEEARRRTREFEDRDRSHREEMEVRVSQ

Variants of: B1
Assay: co-immunoprecipitation (Flag IP) with immunoblot quantification; 293T cells treated with CBFβ-specific siRNA; MG132 (5 μM) for 16-h; read off a plot

Variant	percent of parent [% WT CBFβ]
chain 2 I55A	~68
chain 2 F68A	~76
